Test results from publication PMC6849348, “Theranostic Application of a Novel G-Quadruplex-Forming DNA Aptamer Targeting Malate Synthase of Mycobacterium tuberculosis” (Molecular Therapy. Nucleic Acids, 2019).

What follows are sequences tested against malate synthase (MS, GlcB) (Mycobacterium tuberculosis) (UniProt P9WK17) (assay: SPR).
malate synthase (MS, GlcB) (Mycobacterium tuberculosis), sequence (P9WK17 whole entry): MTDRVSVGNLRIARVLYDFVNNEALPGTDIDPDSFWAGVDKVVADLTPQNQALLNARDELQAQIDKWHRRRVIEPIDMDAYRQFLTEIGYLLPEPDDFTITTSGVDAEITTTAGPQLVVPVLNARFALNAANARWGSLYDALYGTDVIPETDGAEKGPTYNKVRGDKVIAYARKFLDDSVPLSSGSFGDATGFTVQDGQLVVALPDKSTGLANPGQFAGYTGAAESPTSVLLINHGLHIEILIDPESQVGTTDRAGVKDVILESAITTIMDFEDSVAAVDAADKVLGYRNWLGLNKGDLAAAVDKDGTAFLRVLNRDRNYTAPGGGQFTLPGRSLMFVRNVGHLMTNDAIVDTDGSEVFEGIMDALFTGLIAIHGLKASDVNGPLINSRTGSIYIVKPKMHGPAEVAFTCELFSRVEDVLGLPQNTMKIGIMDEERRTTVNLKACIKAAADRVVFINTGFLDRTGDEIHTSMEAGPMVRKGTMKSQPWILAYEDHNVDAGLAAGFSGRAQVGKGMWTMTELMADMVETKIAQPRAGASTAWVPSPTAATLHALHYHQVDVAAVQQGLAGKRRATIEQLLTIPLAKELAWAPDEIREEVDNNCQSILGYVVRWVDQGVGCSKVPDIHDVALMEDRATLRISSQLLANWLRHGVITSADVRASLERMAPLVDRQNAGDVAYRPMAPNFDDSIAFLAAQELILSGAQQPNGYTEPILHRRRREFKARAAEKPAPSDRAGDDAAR
With “GCAGAGAGAGAGAAAGTGAGAAGGGCGGGGGGGAGAGGGTGGGG [MS5]” the Kd was 2700 nM. “GGACCAGGTGAGTGGATGCGGGTGCGGGTGGGGGTGAGGGGGGG [MS4]” gave a Kd of 9.9 nM. “GGGTTGTAAGAGGGAGCTGGGAGGGGTCGGGGGGGGGGGTGGC [MS20]” gave a Kd of 910 nM. Work on “GGTGGGATGGGGGGGGGAGGGTAGGGTGTGCAAGTAGAGGGTC [MS6]” yielded a Kd of 0.28 nM.
